According to patent US11618906B2, “Hydroxylation techniques” (HYPHA DISCOVERY LTD., priority 2018, dated 2023):
Changes are numbered by the printed parent chain. Names and notes keep the numbering of the source.

B1: aluC09M35: cytochrome P450 aluC09 mutant T291P; amino acid sequence SEQ ID NO: 52 (protein, listed as Amycolatopsis lurida)
chain: MTDVEETTATLPLARKCPFSPPPEYERLRRESPVSRVGLPSGQTAWALTRLEDIREMLSSPHFSSDRQSPSFPLMVARQIRREDKPFRPSLIAMDPPEHSRARRDVVGEFTVKRMKALQPRIQQIVDEHLDALLAGPKPADLVQALSLPVPSLVICELLGVPYSDHEFFQSCSSRMLSREVTAEERMTAFEQLENYLDELVTKKEANATEDDLLGRQILKQRETGEADHGELVGLAFLLLIAGHETTANMISLGTVTLLENPDQLAKIKADPGKTLAAIEELLRVFTIAEPATSRFATADVEIGGTLIRAGEGVVGLSNAGNHDPDGFENPDTFDIERGARHHVAFGFGVHQCLGQNLARLELQIVFDTLFRRVPGLRIAVPVDELPFKHDSTIYGLHALPVTW
B2: aluC09M39: cytochrome P450 aluC09 mutant T291K; amino acid sequence SEQ ID NO: 68 (protein, listed as Amycolatopsis lurida)
chain: B1 chain with P291K

Experiments:
Assay type in all cases: biochemical
[1] = Hydroxylation of diclofenac catalysed by cytochrome P450 aluC09 and mutants (UPLC-PDA-MS); conditions: for 4′,5-dihydroxy-diclofenac 1.38 mins / 4′-hydroxy-diclofenac (1) 1.62 mins / 5-hydroxy-diclofenac (2) 1.58 mins / Diclofenac (Substrate) 1.81 mins: % by UV peak area at 275 nm, 0.125 mg/ml substrate, 27° C., 16-20 hours; for Hydroxylated Ratio hydroxy 1:hydroxy 2: ratio of UV peak areas at 275nm
Procedure: (§1) Lyophilised material of mutants of CYP450aluC09, ferredoxinaluF03 and ferredoxin reductaseSCF15A was made as described in examples 3 and 4 and suspended in water (0.5 mL per vial) and biocatalysis was performed at 27° C. in the following conditions: 50 mM potassium phosphate pH 7.4, 5 mM MgCl2, 0.125 mg/ml substrate compound such as diclofenac (Sigma-Aldrich, UK), Aceclofenac (Tokyo Chemical Industry UK Ltd, UK), Indomethacin (Sigma-Aldrich, UK), Flufenamic acid (Sigma-Aldrich, UK), Napropamide (Sigma-Aldrich, UK), celecoxib (LC Laboratories, USA), valsartan (Tokyo Chemical Industry UK Ltd, UK), ruxolitinib (LC Laboratories, USA), 4-pyrrolidylacetophenone (Sigma-Aldrich, UK), tofacitinib (LC Laboratories, USA), bosentan (CarboSynth Ltd, UK), buparvaquone (MedChemtronica, Sweden), BIRB796 (Stratech Scientific Limited, UK), epothilone B (LC Laboratories, USA), ritonavir (Tokyo Chemical Industry UK Ltd, UK) or tivantinib (MedChemtronica, Sweden), P450AluC09 (concentration as in Table 8), 5 mM G6P, 1 mM NADP, 2 UN/ml G6PDH in a final volume of 100 μL. After 16-20 hours at 200 rpm (5 cm orbital shaker, Kuhner AG, Switzerland), reactions were extracted with an equal volume of acetonitrile, centrifuged to remove precipitated proteins and conversion assessed by UPLC-MS analysis.
(§2) UPLC data was obtained as follows:
(§3) Column: Acquity UPLC BEH Shield RP18 1.7 μm 2.1 mm i.d. 50 mm length
(§4) Solvents: H2O, B: Acetonitrile, both with 0.1% Formic acid
(§5) Detector: Waters Acquity UPLC PDA (UV-Vis detection) and Waters Acquity UPLC QDA (MS)
Illustrative results for the hydroxylation of diclofenac by CYP450aluC09 and selected T291x mutants are summarised below in Table 3 with representative chromatograms resented in FIG. 3a-c; retention times: diclofenac 1.85-1.88 minutes, 5-hydroxydiclofenac 1.60-1.63 minutes, 4′-hydroxydiclofenac 1.65-1.68 minutes, 4′,5-dihydroxydiclofenac 1.40-1.42 minutes. The chromatographic retention times and mass spectra coincided with those of authentic samples.

[2] = Hydroxylation of flufenamic acid catalysed by cytochrome P450 aluC09 and mutants; conditions: for Flufenamic Acid (Substrate) 1.93 mins / Hydroxy-Flufenamic Acid (1) 1.69 mins / Hydroxy-Flufenamic Acid (2) 1.65 mins: % by UV peak area at 275 nm, 0.125 mg/ml substrate, 27° C., 16-20 hours; for Hydroxylated Ratio 1:2: flufenamic acid, ratio of UV peak areas at 275 nm
Procedure: as §1, §2, §3, §4, §5
Flufenamic acid elutes at 1.93 minutes, hydroxy-flufenamic acid 1 elutes at 1.68 minutes and hydroxy-flufenamic acid 2 elutes at 1.65 minutes.

[3] = Hydroxylation of aceclofenac catalysed by cytochrome P450 aluC09 and mutants; conditions: for Aceclofenac (Substrate) (1.80 mins) / Dihydroxy-Aceclofenac (1.42 mins) / Hydroxy-Aceclofenac (1) (1.64 min) / Hydroxy-Aceclofenac (2) (1.60 min): % by UV peak area at 275 nm, 0.125 mg/ml substrate, 27° C., 16-20 hours; for Hydroxylated Ratio 2:1: aceclofenac, ratio of UV peak areas at 275 nm
Procedure: as §1, §2, §3, §4, §5
Chromatograms are provided in FIGS. 5a-c; aceclofenac elutes at 1.80 minutes, hydroxy-aceclofenac acid 1 elutes at 1.64 minutes, hydroxy-aceclofenac acid 2 elutes at 1.60 minutes and dihydroxy-aceclofenac elutes at 1.42 minutes.

[4] = Hydroxylation / de-N-ethylation of napropamide catalysed by cytochrome P450 aluC09 and mutants; conditions: for Desethyl Napropamide (1.62 min) / Desethyl-hydroxy-Napropamide (1.41 min) / Hydroxy-Napropamide (1) (1.53 min) / Hydroxy-Napropamide (2), (1.52 min) / M-2Da (unidentified) (1.89 min) / Napropamide (substrate): % by UV peak area at 275 nm, 0.125 mg/ml substrate, 27° C., 16-20 hours; for Hydroxylated Ratio 2:1: napropamide, ratio of UV peak areas
Procedure: as §1, §2, §3, §4, §5
Napropamide elutes at 1.76 minutes, unidentified metabolite (−2 Da) elutes at 1.90 minutes, desethyl-napropamide elutes at 1.62 minutes, hydroxy-napropamide 1 elutes at 1.53 minutes and hydroxy-napropamide 2 elutes at 1.52 minutes and the desethyl-hydroxy-napropamide product elutes at 1.41 minutes.

[5] = O-demethylation of indomethacin catalysed by cytochrome P450 aluC09 and mutants; conditions: % by UV peak area at 275 nm; 0.125 mg/ml substrate, 27° C., 16-20 hours
Procedure: as §1, §2, §3, §4, §5

[6] = Metabolism of ritonavir by P450 aluC09 and mutants; conditions: percent of substrate being converted; 0.125 mg/ml, 27° C., 16-20 hours; [CYP] per enzyme as in Table 8
Procedure: as §1
(§6) However, of particular note when considering P450 concentration are the results for mutants M12, M20 and M34, as well as the deleterious impact on the range of substrate utility in mutants M39 and M40.

[7] = Metabolism of celecoxib by P450 aluC09 and mutants; conditions: percent of substrate being converted; 0.125 mg/ml, 27° C., 16-20 hours; [CYP] per enzyme as in Table 8
Procedure: as §1, §6

[8] = Metabolism of epothilone B by P450 aluC09 and mutants; conditions: percent of substrate being converted; 0.125 mg/ml, 27° C., 16-20 hours; [CYP] per enzyme as in Table 8
Procedure: as §1, §6

[9] = Metabolism of buparvaquone by P450 aluC09 and mutants; conditions: percent of substrate being converted; 0.125 mg/ml, 27° C., 16-20 hours; [CYP] per enzyme as in Table 8
Procedure: as §1, §6

[10] = Metabolism of BIRB796 by P450 aluC09 and mutants; conditions: percent of substrate being converted; 0.125 mg/ml, 27° C., 16-20 hours; [CYP] per enzyme as in Table 8
Procedure: as §1, §6

[11] = Metabolism of bosentan by P450 aluC09 and mutants; conditions: percent of substrate being converted; 0.125 mg/ml, 27° C., 16-20 hours; [CYP] per enzyme as in Table 8
Procedure: as §1, §6

[12] = Metabolism of valsartan by P450 aluC09 and mutants; conditions: percent of substrate being converted; 0.125 mg/ml, 27° C., 16-20 hours; [CYP] per enzyme as in Table 8
Procedure: as §1, §6

[13] = Metabolism of ruxolitinib by P450 aluC09 and mutants; conditions: percent of substrate being converted; 0.125 mg/ml, 27° C., 16-20 hours; [CYP] per enzyme as in Table 8
Procedure: as §1, §6

[14] = Metabolism of 4-pyrrolidylacetophenone by P450 aluC09 and mutants; conditions: percent of substrate being converted; 0.125 mg/ml, 27° C., 16-20 hours; [CYP] per enzyme as in Table 8
Procedure: as §1, §6

[15] = Metabolism of tivantinib by P450 aluC09 and mutants; conditions: percent of substrate being converted; 0.125 mg/ml, 27° C., 16-20 hours; [CYP] per enzyme as in Table 8
Procedure: as §1, §6

[16] = Metabolism of tofacitinib by P450 aluC09 and mutants; conditions: percent of substrate being converted; 0.125 mg/ml, 27° C., 16-20 hours; [CYP] per enzyme as in Table 8
Procedure: as §1, §6

| Molecule | 4′,5-dihydroxy-diclofenac 1.38 mins [1] | 4′-hydroxy-diclofenac (1) 1.62 mins [1] | 5-hydroxy-diclofenac (2) 1.58 mins [1] | Diclofenac (Substrate) 1.81 mins [1] | Hydroxylated Ratio hydroxy 1:hydroxy 2 ([1]; diclofenac) | Flufenamic Acid (Substrate) 1.93 mins [2] | Hydroxy-Flufenamic Acid (1) 1.69 mins [2] | Hydroxy-Flufenamic Acid (2) 1.65 mins [2] | Hydroxylated Ratio 1:2 [2] | Aceclofenac (Substrate) (1.80 mins) [3] | Dihydroxy-Aceclofenac (1.42 mins) [3] | Hydroxy-Aceclofenac (1) (1.64 min) [3] | Hydroxy-Aceclofenac (2) (1.60 min) [3] | Hydroxylated Ratio 2:1 [3] | Desethyl Napropamide (1.62 min) [4] | Desethyl-hydroxy-Napropamide (1.41 min) [4] | Hydroxy-Napropamide (1) (1.53 min) [4] | Hydroxy-Napropamide (2), (1.52 min) [4] | M-2Da (unidentified) (1.89 min) [4] | Napropamide (substrate) [4] | further results |
| --- | --- | --- | --- | --- | --- | --- | --- | --- | --- | --- | --- | --- | --- | --- | --- | --- | --- | --- | --- | --- | --- |
| B1 | 0.9% | 41.3% | 9.9% | 48.2% | 4.2 | 95.8% | 2.7% | 1.5% | 1.9 | 21.8% | 26.6% | 12.2% | 39.4% | 3.2 | 36.6% | 4.8% | 1.2% | 3.6% | 5.3% | 51.0% | regioselectivity of hydroxylation (product ratio 4′-hydroxydiclofenac : 5-hydroxydiclofenac) ([1]; diclofenac): over four-fold; Hydroxylated Ratio 2:1 [4]: 3.0; Indomethacin (1.74 mins) [5]: 94.1%; O-demethyl-Indomethacin (1.52 mins) [5]: 5.9%; % conversions (avg) Ritonavir [6]: 37.6%; % conversions (avg) Celecoxib [7]: 1.5%; % conversions (avg) Epothilone B [8]: 20.6%; % conversions (avg) Buparvaquone [9]: 7.1%; % conversions (avg) BIRB796 [10]: 4.6%; % conversions (avg) Bosentan [11]: 98.4%; % conversions (avg) Valsartan [12]: 21.8%; % conversions (avg) Ruxolitinib [13]: 34.1%; % conversions (avg) 4-pyrrolidylacetophenone [14]: 3.3%; % conversions (avg) Tivantinib [15]: 35.7%; % conversions (avg) Tofacitinib [16]: 1.1% |
| B2 | 2.1% | 42.8% | 14.6% | 41.4% | 2.9 | 94.4% | 5.1% | 0.5% | 4.9 | 63.7% | 4.4% | 18.6% | 13.3% | 0.7 | 16.3% | 0.7% | 1.4% | 1.6% | 2.3% | 78.2% | production of hydroxyl-flufenamic acid 2 ([2]; peak at 1.65 minutes, compared to wild-type): no detectable production; Hydroxylated Ratio 2:1 [4]: 1.2; Indomethacin (1.74 mins) [5]: 93.0%; O-demethyl-Indomethacin (1.52 mins) [5]: 7.0%; % conversions (avg) Ritonavir [6]: 39.2%; % conversions (avg) Celecoxib [7]: 0%; % conversions (avg) Epothilone B [8]: 1.6%; % conversions (avg) Buparvaquone [9]: 0%; % conversions (avg) BIRB796 [10]: 0%; % conversions (avg) Bosentan [11]: 85.1%; % conversions (avg) Valsartan [12]: 7.8%; % conversions (avg) Ruxolitinib [13]: 5.3%; % conversions (avg) 4-pyrrolidylacetophenone [14]: 1.5%; % conversions (avg) Tivantinib [15]: 7.2%; % conversions (avg) Tofacitinib [16]: 0% |
